# According to patent US20230002480A1:
# Experiments:
# Assay in all cases: cell-based or functional assay
# [1] = biological target: HIV-1 Env of pseudovirus ZM214M.PL15 (HIV-1)
# [2] = biological target: HIV-1 Env of pseudovirus 928-28 (HIV-1)
# [3] = biological target: HIV-1 Env of pseudovirus ZM135M.PL10a (HIV-1)
# [4] = biological target: HIV-1 Env of pseudovirus T257-31 (HIV-1)
# [5] = biological target: HIV-1 Env of pseudovirus CNE52 (HIV-1)
# [6] = biological target: HIV-1 Env of pseudovirus CAP210.2.00.E8 (HIV-1)
# [7] = biological target: HIV-1 Env of pseudovirus ZM197M.PB7 (HIV-1)
# [8] = biological target: HIV-1 Env of pseudovirus 191084 B7-19 (HIV-1)
# [9] = biological target: HIV-1 Env of pseudovirus Ce2060_G9 (HIV-1)
# [10] = biological target: HIV-1 Env of pseudovirus THRO4156.18 (HIV-1)
# [11] = biological target: HIV-1 Env of pseudovirus CNE21 (HIV-1)
# [12] = biological target: HIV-1 Env of pseudovirus C2101.c01 (HIV-1)
# [13] = biological target: HIV-1 Env of pseudovirus CNE20 (HIV-1)
# [14] = biological target: HIV-1 Env of pseudovirus T251-18 (HIV-1)
# [15] = biological target: HIV-1 Env of pseudovirus Du172.17 (HIV-1)
# [16] = biological target: HIV-1 Env of pseudovirus X1193_c1 (HIV-1)
# [17] = biological target: HIV-1 Env of pseudovirus Ce0393_C3 (HIV-1)
# [18] = biological target: HIV-1 Env of pseudovirus TRJO4551.58 (HIV-1)
# [19] = biological target: HIV-1 Env of pseudovirus WITO4160.33 (HIV-1)
# [20] = biological target: HIV-1 Env of pseudovirus ZM249M.PL1 (HIV-1)
# [21] = biological target: HIV-1 Env of pseudovirus 246F C1G (HIV-1)
# [22] = biological target: HIV-1 Env of pseudovirus 7030102001E5(Rev-) (HIV-1)
# [23] = biological target: HIV-1 Env of pseudovirus T250-4 (HIV-1)
# [24] = biological target: HIV-1 Env of pseudovirus Q461.e2 (HIV-1)
# [25] = biological target: HIV-1 Env of pseudovirus Ce0682_E4 (HIV-1)
# [26] = biological target: HIV-1 Env of pseudovirus X2088_c9 (HIV-1)
# [27] = biological target: HIV-1 Env of pseudovirus 9004SS_A3_4 (HIV-1)
# [28] = biological target: HIV-1 Env of pseudovirus 1056_10_TA11_1826 (HIV-1)
# [29] = biological target: HIV-1 Env of pseudovirus Ce704809221_1B3 (HIV-1)
# [30] = biological target: HIV-1 Env of pseudovirus AC10.0.29 (HIV-1)
# [31] = biological target: HIV-1 Env of pseudovirus T255-34 (HIV-1)
substance,measurement,setting,value
N49P7 (antibody),neutralization IC50,[1],0.213 µg/mL
same,neutralization IC80,[1],0.953 µg/mL
same,neutralization MPI,[1],100
same,neutralization IC50,[2],0.167 µg/mL
same,neutralization IC80,[2],0.579 µg/mL
same,neutralization MPI,[2],100
same,neutralization IC50,[3],0.2 µg/mL
same,neutralization IC80,[3],0.96 µg/mL
same,neutralization MPI,[3],100
same,neutralization IC50,[4],0.158 µg/mL
same,neutralization IC80,[4],0.619 µg/mL
same,neutralization MPI,[4],100
same,neutralization IC50,[5],0.008 µg/mL
same,neutralization IC80,[5],0.023 µg/mL
same,neutralization MPI,[5],100
same,neutralization IC50,[6],1.82 µg/mL
same,neutralization IC80,[6],6.49 µg/mL
same,neutralization MPI,[6],100
same,neutralization IC50,[7],0.109 µg/mL
same,neutralization IC80,[7],0.347 µg/mL
same,neutralization MPI,[7],100
same,neutralization IC50,[8],0.047 µg/mL
same,neutralization IC80,[8],0.142 µg/mL
same,neutralization MPI,[8],100
same,neutralization IC50,[9],0.661 µg/mL
same,neutralization IC80,[9],2.55 µg/mL
same,neutralization MPI,[9],100
same,neutralization IC50,[10],2.34 µg/mL
same,neutralization IC80,[10],12.4 µg/mL
same,neutralization MPI,[10],99
same,neutralization IC50,[11],0.756 µg/mL
same,neutralization IC80,[11],6.02 µg/mL
same,neutralization MPI,[11],97
same,neutralization IC50,[12],0.06 µg/mL
same,neutralization IC80,[12],0.34 µg/mL
same,neutralization MPI,[12],100
same,neutralization IC50,[13],0.028 µg/mL
same,neutralization IC80,[13],0.1 µg/mL
same,neutralization MPI,[13],100
same,neutralization IC50,[14],0.178 µg/mL
same,neutralization IC80,[14],0.62 µg/mL
same,neutralization MPI,[14],100
same,neutralization IC50,[15],0.102 µg/mL
same,neutralization IC80,[15],0.668 µg/mL
same,neutralization MPI,[15],100
same,neutralization IC50,[16],0.016 µg/mL
same,neutralization IC80,[16],0.06 µg/mL
same,neutralization MPI,[16],100
same,neutralization IC50,[17],0.195 µg/mL
same,neutralization IC80,[17],0.802 µg/mL
same,neutralization MPI,[17],100
same,neutralization IC50,[18],0.104 µg/mL
same,neutralization IC80,[18],0.351 µg/mL
same,neutralization MPI,[18],100
same,neutralization IC50,[19],0.084 µg/mL
same,neutralization IC80,[19],0.248 µg/mL
same,neutralization MPI,[19],100
same,neutralization IC50,[20],0.039 µg/mL
same,neutralization IC80,[20],0.134 µg/mL
same,neutralization MPI,[20],100
same,neutralization IC50,[21],0.094 µg/mL
same,neutralization IC80,[21],0.255 µg/mL
same,neutralization MPI,[21],100
same,neutralization IC50,[22],0.184 µg/mL
same,neutralization IC80,[22],0.832 µg/mL
same,neutralization MPI,[22],100
same,neutralization IC50,[23],2.07 µg/mL
same,neutralization IC80,[23],21.4 µg/mL
same,neutralization MPI,[23],91
same,neutralization IC50,[24],0.261 µg/mL
same,neutralization IC80,[24],0.922 µg/mL
same,neutralization MPI,[24],100
same,neutralization IC50,[25],0.041 µg/mL
same,neutralization IC80,[25],0.131 µg/mL
same,neutralization MPI,[25],100
same,neutralization IC50,[26],0.116 µg/mL
same,neutralization IC80,[26],0.338 µg/mL
same,neutralization MPI,[26],100
same,neutralization IC50,[27],0.125 µg/mL
same,neutralization IC80,[27],0.39 µg/mL
same,neutralization MPI,[27],100
same,neutralization IC50,[28],0.141 µg/mL
same,neutralization IC80,[28],0.468 µg/mL
same,neutralization MPI,[28],100
same,neutralization IC50,[29],0.141 µg/mL
same,neutralization IC80,[29],0.932 µg/mL
same,neutralization MPI,[29],100
same,neutralization IC50,[30],5.03 µg/mL
same,neutralization IC80,[30],36.7 µg/mL
same,neutralization MPI,[30],89
same,neutralization IC50,[31],0.053 µg/mL
same,neutralization IC80,[31],0.262 µg/mL
same,neutralization MPI,[31],100
PG16 (antibody),"IC50, titer in TZM.bl cells",[1],> 50 µg/mL
same,"IC80, titer in TZM.bl cells",[1],> 50 µg/mL
same,"IC50, titer in TZM.bl cells",[2],0.034 µg/mL
same,"IC80, titer in TZM.bl cells",[2],0.237 µg/mL
same,"IC50, titer in TZM.bl cells",[3],> 50 µg/mL
same,"IC80, titer in TZM.bl cells",[3],> 50 µg/mL
same,"IC50, titer in TZM.bl cells",[4],0.007 µg/mL
same,"IC80, titer in TZM.bl cells",[4],0.021 µg/mL
same,"IC50, titer in TZM.bl cells",[5],0.009 µg/mL
same,"IC80, titer in TZM.bl cells",[5],0.026 µg/mL
same,"IC50, titer in TZM.bl cells",[6],0.01 µg/mL
same,"IC80, titer in TZM.bl cells",[6],0.042 µg/mL
same,"IC50, titer in TZM.bl cells",[7],1.5 µg/mL
same,"IC80, titer in TZM.bl cells",[7],22.8 µg/mL
same,"IC50, titer in TZM.bl cells",[8],0.024 µg/mL
same,"IC80, titer in TZM.bl cells",[8],0.238 µg/mL
same,"IC50, titer in TZM.bl cells",[9],0.075 µg/mL
same,"IC80, titer in TZM.bl cells",[9],1.71 µg/mL
same,"IC50, titer in TZM.bl cells",[10],6.83 µg/mL
same,"IC80, titer in TZM.bl cells",[10],> 50 µg/mL
same,"IC50, titer in TZM.bl cells",[11],0.007 µg/mL
same,"IC80, titer in TZM.bl cells",[11],0.026 µg/mL
same,"IC50, titer in TZM.bl cells",[13],3.63 µg/mL
same,"IC80, titer in TZM.bl cells",[13],47.2 µg/mL
same,"IC50, titer in TZM.bl cells",[15],0.033 µg/mL
same,"IC80, titer in TZM.bl cells",[15],0.213 µg/mL
same,"IC50, titer in TZM.bl cells",[17],0.002 µg/mL
same,"IC80, titer in TZM.bl cells",[17],0.006 µg/mL
same,"IC50, titer in TZM.bl cells",[18],1.01 µg/mL
same,"IC80, titer in TZM.bl cells",[18],24.5 µg/mL
same,"IC50, titer in TZM.bl cells",[19],0.002 µg/mL
same,"IC80, titer in TZM.bl cells",[19],0.012 µg/mL
same,"IC50, titer in TZM.bl cells",[20],0.127 µg/mL
same,"IC80, titer in TZM.bl cells",[20],18.1 µg/mL
same,"IC50, titer in TZM.bl cells",[21],> 50 µg/mL
same,"IC80, titer in TZM.bl cells",[21],> 50 µg/mL
same,"IC50, titer in TZM.bl cells",[22],> 50 µg/mL
same,"IC80, titer in TZM.bl cells",[22],> 50 µg/mL
same,"IC50, titer in TZM.bl cells",[23],0.002 µg/mL
same,"IC80, titer in TZM.bl cells",[23],0.005 µg/mL
same,"IC50, titer in TZM.bl cells",[24],1.75 µg/mL
same,"IC80, titer in TZM.bl cells",[24],> 50 µg/mL
same,"IC50, titer in TZM.bl cells",[25],0.026 µg/mL
same,"IC80, titer in TZM.bl cells",[25],0.202 µg/mL
same,"IC50, titer in TZM.bl cells",[27],0.02 µg/mL
same,"IC80, titer in TZM.bl cells",[27],0.111 µg/mL
same,"IC50, titer in TZM.bl cells",[28],0.315 µg/mL
same,"IC80, titer in TZM.bl cells",[28],1.95 µg/mL
same,"IC50, titer in TZM.bl cells",[29],0.021 µg/mL
same,"IC80, titer in TZM.bl cells",[29],0.116 µg/mL
same,"IC50, titer in TZM.bl cells",[30],0.023 µg/mL
same,"IC80, titer in TZM.bl cells",[30],0.417 µg/mL
